Reference: US20120270271A1 (University of Washington, published 2012)

Target: T1, Tse2 (type VI secretion exported protein 2) with glycogen synthase kinase (GSK) tag (Pseudomonas aeruginosa PAO1, UniProt Q9I0E0 1-158)
T1 construct: Toxin as detected in the co-immunoprecipitation in P. aeruginosa lysate; it is placed last here only by default; also called PA2702; not shown: GSK tag used for detection
T1 sequence: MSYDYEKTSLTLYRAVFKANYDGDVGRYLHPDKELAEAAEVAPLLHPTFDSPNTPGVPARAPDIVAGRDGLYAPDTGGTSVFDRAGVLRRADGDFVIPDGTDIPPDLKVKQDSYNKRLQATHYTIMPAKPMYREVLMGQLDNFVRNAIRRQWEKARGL
Assay: co-immunoprecipitation from P. aeruginosa lysate with anti-VSV-G agarose beads, Western blot for GSK-tagged Tse2

B1: Tsi2-V (type VI secretion immunity protein 2 fused to the vesicular stomatitis virus G epitope) (other)
chain: MNLKPQTLMVAIQCVAARTRELDAQLQNDDPQNAAELEQLLVGYDLAADDLKNAYEQALGQYSGLPPYDRLIEEPAS
binding result: binds
